The target of test [1] is T1, cynomolgus IgE Cε3-Cε4 domain, C-terminally tagged with FLAG His10 (cynomolgus monkey).
T1 construct: also called Cynomolgus Ce3-4 FLAG His10
T1 chain: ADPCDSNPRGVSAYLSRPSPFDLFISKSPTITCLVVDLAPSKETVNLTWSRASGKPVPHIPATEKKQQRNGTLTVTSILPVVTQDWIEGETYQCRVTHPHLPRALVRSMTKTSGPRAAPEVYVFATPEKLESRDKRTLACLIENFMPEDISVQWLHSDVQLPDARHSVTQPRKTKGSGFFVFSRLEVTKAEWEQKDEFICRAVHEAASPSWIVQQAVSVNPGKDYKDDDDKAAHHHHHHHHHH
Kind of test: DELFIA epitope competition; competitor vs biotinylated IgE on immobilised IgG.

In test [2] the target is human IgE (preparation not stated, or 'Calbiochem or U266-derived') (human, UniProt P01854-1 1-428). Description: cell-based or functional assay.
human IgE (preparation not stated, or 'Calbiochem or U266-derived'), sequence (P01854 other isoform, or with tags, fused parts or gaps): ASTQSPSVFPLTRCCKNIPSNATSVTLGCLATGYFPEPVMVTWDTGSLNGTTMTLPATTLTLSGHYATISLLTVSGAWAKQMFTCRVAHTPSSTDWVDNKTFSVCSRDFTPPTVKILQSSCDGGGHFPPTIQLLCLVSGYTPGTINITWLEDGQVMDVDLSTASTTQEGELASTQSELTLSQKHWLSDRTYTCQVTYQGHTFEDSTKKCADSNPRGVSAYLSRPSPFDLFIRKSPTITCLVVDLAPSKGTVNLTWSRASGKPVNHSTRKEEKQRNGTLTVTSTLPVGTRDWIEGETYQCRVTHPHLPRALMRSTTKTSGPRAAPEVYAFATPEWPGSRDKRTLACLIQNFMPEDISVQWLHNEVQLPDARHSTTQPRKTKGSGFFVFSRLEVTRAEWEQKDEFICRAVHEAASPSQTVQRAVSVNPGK

B1: Antibody 1 IgG (antibody, V domains shown)
VH: QVQLVQSGAEVKKPGATVKLSCKVYGYIFTDYNIYWVRQAPGKGLEWMGLIDPDNGETFYAEKFQGRATMTADTSSDRAYMELTSLTFEDTATYYCATVLHRRLKGGYDYWGRGTLVTVSS
VL: QSVLTQPPSVSGAPGQRVTISCTGSSSNIGAGYDVHWYQQLPGTAPKLLIYDNFNRPSGVPDRFSGSKSGTSASLAIIGLQTEDEADYYCQSYDSSLSGSLFGTGTKLTVL
notes: Whole human IgG (section 1.4, IgG1); also called parent antibody
As to B1, the binding result in test [1] is listed as “binds”. The “IgE induced calcium signalling of RBL-ER51 cells, IC50” value in test [2] was 34 nM.

(Values after patent publication US20140127212A1 (AstraZeneca / MedImmune, published 2014).)
